Assay results: publication PMC7682986, “Talin-activated vinculin interacts with branched actin networks to initiate bundles” (eLife, 2020)

Target: T1, full-length human vinculin (human, UniProt P18206-2 1-1066, Alexa Fluor 488 maleimide on cysteines (30% Alexa488-labeled monomers in the TIRFM assay on patterns))
T1 construct: human vinculin, cDNA isolated from the human A431 cell line, PCR product of 1066 amino acids; FX cloning and 3C cleavage may leave a few extra residues at the ends; also called VCL; source: Sf9 insect cells (baculovirus), purified (Ni IMAC, 3C protease cleavage on the resin, Superdex 200); not shown: GFP, C-terminal, cleaved; 10xHis, C-terminal, cleaved
T1 sequence (looked up): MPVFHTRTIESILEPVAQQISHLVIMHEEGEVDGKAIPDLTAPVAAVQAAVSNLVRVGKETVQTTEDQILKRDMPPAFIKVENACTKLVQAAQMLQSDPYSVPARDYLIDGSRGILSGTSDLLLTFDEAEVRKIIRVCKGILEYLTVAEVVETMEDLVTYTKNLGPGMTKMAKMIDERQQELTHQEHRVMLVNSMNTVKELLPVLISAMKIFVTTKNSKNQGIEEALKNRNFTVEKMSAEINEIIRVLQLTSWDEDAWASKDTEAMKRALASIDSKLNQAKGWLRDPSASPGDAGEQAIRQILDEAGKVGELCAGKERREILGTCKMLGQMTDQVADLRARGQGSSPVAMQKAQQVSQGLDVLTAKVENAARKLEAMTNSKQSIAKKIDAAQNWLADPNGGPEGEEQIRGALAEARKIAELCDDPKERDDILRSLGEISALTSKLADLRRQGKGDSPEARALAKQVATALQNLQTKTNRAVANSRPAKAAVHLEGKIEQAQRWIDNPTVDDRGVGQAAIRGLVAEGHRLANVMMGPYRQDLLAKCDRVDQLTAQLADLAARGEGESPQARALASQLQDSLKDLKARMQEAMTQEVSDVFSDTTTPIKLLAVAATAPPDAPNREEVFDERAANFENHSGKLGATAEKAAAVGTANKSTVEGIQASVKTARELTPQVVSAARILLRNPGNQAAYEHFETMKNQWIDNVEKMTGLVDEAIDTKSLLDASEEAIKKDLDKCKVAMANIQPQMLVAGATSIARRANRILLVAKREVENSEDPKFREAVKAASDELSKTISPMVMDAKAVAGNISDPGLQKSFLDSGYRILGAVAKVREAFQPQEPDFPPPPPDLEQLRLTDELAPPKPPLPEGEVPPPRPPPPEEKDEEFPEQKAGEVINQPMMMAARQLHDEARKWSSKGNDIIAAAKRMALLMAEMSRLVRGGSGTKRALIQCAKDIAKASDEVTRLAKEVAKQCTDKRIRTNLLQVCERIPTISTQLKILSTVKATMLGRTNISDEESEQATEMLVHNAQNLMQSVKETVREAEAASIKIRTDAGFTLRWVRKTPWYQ
Experiment: TIRF microscopy on protein-coated micropatterns; micropatterns coated with 0.4 µM GST-talin VBS1 (control patterns with BSA); flow of 300 nM inactive vinculin (Alexa488), 0.3 µM actin, Arp2/3 complex and 80 nM WAVE WA; 20 mM Hepes pH 7.0, 40 mM KCl, 0.4% methylcellulose, 0.2% BSA
Settings: both partners purified

B1: GST-talin VBS1 (human talin 1 vinculin-binding site 1, residues 482–636) (domain or fragment, UniProt Q9Y490 482-636, looked up)
chain: RGHMPPLTSAQQALTGTINSSMQAVQAAQATLDDFDTLPPLGQDAASKAWRKNKMDESKHEIHSQVDAITAGTASVVNLTAGDPAETDYTAVGCAVTTISSNLTEMSRGVKLLAALLEDEGGSGRPLLQAAKGLAGAVSELLRSAQPASAEPRQN
notes: construct from C; Le Clainche; Coated on micropatterns as GST-talin VBS1; also called GST-VBS1; VBS1-GST; source: E. coli BL21 (DE3)pLysS, purified (glutathione-Sepharose)
binding result: binds
